Results published in patent publication US12545899B2, “Luciferase enzymes for use with thermostable luciferins in bioluminescent assays” (Promega Corporation, priority 2018, dated 2026).
Substitutions are numbered along the chain they refer to. Names and notes keep the numbering of the source.

B1: ATG-3549: SEQ ID NO: 14; H244W+T344A+I396K+V300G (protein)
chain: MADKNILYGPEPFYPLEDGTAGEQMFDALSRYAAIPGCIALTNAHTKENVLYEEFLKLSCRLAESFKKYGLKQNDTIAVCSENSLQFFLPVIASLYLGIIVAPVNDKYIERELIHSLGIVKPRIVFCSKNTFQKVLNVKSKLKSIETIIILDLNEDLGGYQCLNNFISQNSDSNLDVKKFKPYSFNRDDQVASIMFSSGTTGLPKGVMLTHKNIVARFSIAKDPTFGNAINPTSAILTVIPFHWGFGMMTTLGYFTCGFRVVLMHTFEEKLFLQSLQDYKVESTLLVPTLMAFLAKSALGEKYDLSHLKEIASGGAPLSKEIGEMVKKRFKLNFVRQGYGLTEATSAVLITPKGDAKPGSTGKIVPLHAVKVVDPTTGKILGPNEPGELYFKGPMKMKGYYNNEEATKAIIDNDGWLRSGDIAYYDNDGHFYIVDRLKSLIKYKGYQVAPAEIEGILLQHPYIVDAGVTGIPDEAAGELPAAGVVVQTGKYLNEQIVQDYVASQVSTAKWLRGGVKFLDEIPKGSTGKIDRKVLRQMLEKHTNGHHHHHHHH
B2: ATG-3551: SEQ ID NO: 16; H244W+T344A+I396K+V300G+S306P (protein)
chain: B1 chain with S306P
B3: C4581C3: SEQ ID NO: 55; H244W+T344A+I396K+I109M+S193L (protein)
chain: B1 chain with I109M, S193L, G300V
B4: C4580B10: SEQ ID NO: 53; H244W+T344A+I396K+K107Q+S193T+V262A (protein)
chain: B1 chain with K107Q, S193T, V262A, G300V
B5: C7573H3: SEQ ID NO: 70; H244W+T344A+I396K+S193A+N228D+L305F+S306P+I109V+A316W (protein)
chain: B1 chain with G300V, L305F, A344T, K396I
B6: ATG-3550: SEQ ID NO: 15; H244W+T344A+I396K+V300G+L305F (protein)
chain: B1 chain with L305F
B7: C4584D9: SEQ ID NO: 56; H244W+T344A+I396K+I109M+S193L+L294H (protein)
chain: B1 chain with I109M, S193L, L294H, G300V
B8: C4589D5: SEQ ID NO: 59; H244W+T344A+I396K+A40A+K107Q+S193T+A316S (protein)
chain: B1 chain with K107Q, S193T, G300V, A316S
B9: ATG-2625: SEQ ID NO: 4; N74N+H244R+V300G+I396K (protein)
chain: B1 chain with W244R, A344T
B10: C4629G5: SEQ ID NO: 67; H244W+T344A+I396K+I236V (protein)
chain: B1 chain with I236V, G300V
B11: C4601C8: SEQ ID NO: 61; H244W+T344A+I396K+S193P (protein)
chain: B1 chain with S193P, G300V
B12: ATG-2624: SEQ ID NO: 3; I240L+Y254S+T344A+I396K (protein)
chain: B1 chain with I240L, W244H, Y254S, G300V
B13: C4604A11: SEQ ID NO: 62; H244W+T344A+I396K+I109M+A316S (protein)
chain: B1 chain with I109M, G300V, A316S
B14: C4584G5: SEQ ID NO: 57; H244W+T344A+I396K+K107Q+L305F (protein)
chain: B1 chain with K107Q, G300V, L305F
B15: C4588H8: SEQ ID NO: 58; H244W+T344A+I396K+K107Q+L305F (protein)
chain: B1 chain with K107Q, G300V, L305F
B16: C4580E9: SEQ ID NO: 54; H244W+T344A+I396K+N228D+V287I (protein)
chain: B1 chain with N228D, V287I, G300V
B17: C4609F7: SEQ ID NO: 64; H244W+T344A+I396K+Y108F+V262A+L305F (protein)
chain: B1 chain with Y108F, V262A, G300V, L305F
B18: C4610H6: SEQ ID NO: 66; H244W+T344A+I396K+K107Q+N228D (protein)
chain: B1 chain with K107Q, N228D, G300V
B19: C4610C10: SEQ ID NO: 65; H244W+T344A+1396K+S306P (protein)
chain: B1 chain with G300V, S306P

Experiments:
[1] = Effect of V300G, L305F, S306P on activity with CS0333 (FIG. 13); format: biochemical; conditions: 1 mM ATP; 100 nM to 1 mM substrate; Bright-Glo buffer
Experimental: FIG. 13 includes a representative graph of the effects of amino acid substitutions V300G, L305F, and S306P on enzyme activity with the CS0333 analog. Reagent compositions included […]+1 mM ATP+100 nM to 1 mM substrate in Bright-Glo™ buffer.

[2] = Inhibition of luciferase enzyme variants by dehydro-F-luciferin; format: biochemical; conditions: for resistance to inhibition by dehydro F-luciferin: 1 μM F-luciferin, 1 mM ATP (FIG. 26); for inhibition by dehydro-F-luciferin relative to Ppe variant (SEQ ID NO: 1): Detection reagent buffer or Bright-Glo buffer (FIGS. 20, 21)
Experimental: Reagent compositions include 0.022 μM-366.97 μM Dehydro F-luciferin titration, 1 mM ATP, 1 μM F-luciferin, and 0.005 mg/ml enzyme. […] Both amino acid substitutions L305F and S306P conferred improved resistance to the inhibitor individually and in combination.

[3] = E. coli lysate screen of epPCR/DNA shuffling variants with CS0280; format: biochemical; conditions: Detection Reagent, 1 mM ATP, 500 μM substrate, 3 mins
Experimental: (§1) These experiments included lysing E. coli cells expressing each luciferase enzyme variant in Detection Reagent containing 1 mM ATP+500 μM substrate. The cell lysate was incubated at room temperature for 3 mins and luminescence was read. The raw luminescence reading was normalized to the on-plate luminescence of ATG-2889, which was used as a control in this screen.

[4] = E. coli lysate screen of epPCR/DNA shuffling variants with CS0333; format: biochemical; conditions: Detection Reagent, 1 mM ATP, 500 μM substrate, 3 mins
Experimental: as §1

[5] = Brightness of additional luciferase enzyme variants with CS0280; format: biochemical; conditions: Table 7A, 1 mM CS0280
Method in brief: (§2)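 Each variant at 0.005 mg/ml combined with 1 mM ATP plus 1 mM substrate in Bright-Glo or Detection Reagent buffer; luminescence recorded as relative brightness.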

[6] = Kinetic analysis of ATG-3707, ATG-4117 with CS0333; format: biochemical
Experimental: (§3) Kinetic tests of these luciferase enzyme variants were also conducted. […] Reagent compositions included 0.005 mg/ml luciferase enzyme variant+1 mM ATP, and 0.1 fM to 1 mM substrate in Bright-Glo™ (BG) or Detection Reagent (DR) buffers. The composition was incubated for 3 mins and read on GloMax® Multi+platform.
(§4) Table 8 below includes representative results of kinetic analysis of the thermostable luciferase variants of Ppe (SEQ ID NO: 1), ATG-3707, and ATG-4117. The Ppe variant (SEQ ID NO: 1) was tested with D/L-luciferin, and ATG-3707, and ATG-4117 were tested with CS0280 and CS0333.

[7] = Differential scanning fluorimetry (DSF) analysis; format: physicochemical; set-up: key to DSF Tm: melting temperature in °C (heated 30-95 °C at 1 °C/min); conditions: Table 7A
Method in brief: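 Thermal melt with 5× final Sypro Orange: ramp 1° C/min from 30 to 95° C, reading each 60 s, derivative of fluorescence plotted by temperature. Luciferase variants were in 20 mM HEPES pH 7.5, 200 mM NaCl, 1 mM EDTA; other enzymes in 50 mM HEPES pH 7.5, 100 mM NaCl, 2 mM EDTA.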

[8] = Kinetic analysis of Ppe variant, ATG-3707, ATG-4117 with D/L-luciferin; format: biochemical
Experimental: as §3, §4

[9] = Brightness of additional luciferase enzyme variants with CS0333; format: biochemical; conditions: Table 7A, 1 mM CS0333
Method in brief: as §2

[10] = Kinetic analysis of ATG-3707, ATG-4117 with CS0280; format: biochemical
Experimental: as §3, §4

| Molecule | Normalized luminescence (Mutant RLU/ATG2889 RLU) with CS0280 [3] | Normalized luminescence (Mutant RLU/ATG2889 RLU) with CS0333 [4] | also measured |
| --- | --- | --- | --- |
| B1 | – | – | activity with CS0333 relative to Ppe variant (SEQ ID NO: 1) [1]: improved activity |
| B2 | – | – | activity with CS0333 relative to Ppe variant (SEQ ID NO: 1) [1]: improved activity; resistance to inhibition by dehydro F-luciferin [2]: conferred resistance to inhibition by dehydro F-luciferin |
| B3 | 3.88 | 1.04 | – |
| B4 | 9.35 | 4.64 | – |
| B5 | – | – | Fold-improvement over ATG3707, CS0280 BG ([5]; Bright-Glo buffer): 6.04; Fold-improvement over ATG3707, CS0280 DR ([5]; Detection Reagent buffer): 7.48; Km ([6]; BrightGlo): 12.4 µM; Vmax (RLU) ([6]; BrightGlo): 1,601,921 RLU; Km ([6]; Detection Reagent): 758 µM; Vmax (RLU) ([6]; Detection Reagent): 124,964 RLU; DSF Tm [7]: 61; Km ([8]; BrightGlo): 0.0702 µM; Vmax (RLU) ([8]; BrightGlo): 719,605 RLU; Km ([8]; Detection Reagent): 2.65 µM; Vmax (RLU) ([8]; Detection Reagent): 817,287 RLU; Fold-improvement over ATG3707, CS0333 BG ([9]; Bright-Glo buffer): 4.35; Fold-improvement over ATG3707, CS0333 DR ([9]; Detection Reagent buffer): 3.36; Km ([10]; BrightGlo): 13 µM; Vmax (RLU) ([10]; BrightGlo): 7,188,109 RLU; Km ([10]; Detection Reagent): 419 µM; Vmax (RLU) ([10]; Detection Reagent): 7,879,793 RLU |
| B6 | – | – | activity with CS0333 relative to Ppe variant (SEQ ID NO: 1) [1]: highest activity; resistance to inhibition by dehydro F-luciferin [2]: conferred resistance to inhibition by dehydro F-luciferin |
| B7 | 12.41 | 2.67 | – |
| B8 | 12.42 | 3.79 | – |
| B9 | – | – | inhibition by dehydro-F-luciferin relative to Ppe variant (SEQ ID NO: 1) [2]: inhibited by dehydro-F-luciferin, but less so |
| B10 | 5.06 | 2.26 | – |
| B11 | 4.53 | 3.32 | – |
| B12 | – | – | inhibition by dehydro-F-luciferin relative to Ppe variant (SEQ ID NO: 1) [2]: inhibited by dehydro-F-luciferin, but less so |
| B13 | 12.16 | 2.41 | – |
| B14 | 4.39 | 3.42 | – |
| B15 | 6.56 | 3.90 | – |
| B16 | 4.00 | 6.51 | – |
| B17 | 3.90 | 6.04 | – |
| B18 | 3.67 | 4.15 | – |
| B19 | 3.60 | 4.32 | – |
